Earlier results, collected in patent US6660905B1, “Mice comprising engrafted functional human hepatocytes” (The Board of Trustees of the Leland Stanford Junior …, priority 1999, dated 2003).

For HGF: human hepatocyte growth factor, the half-life is listed as “on the order of minutes”.
